Test results: the Human Domainome abundance scans (Beltran et al. 2025)
± gives the uncertainty stated by the source.

B1: FERM and PDZ domain-containing protein 4, residues 75 to 154; numbered along this chain, Q14CM0 (parent)
chain: APRKVEMRRDPVLGFGFVAGSEKPVVVRSVTPGGPSEGKLIPGDQIVMINDEPVSAAPRERVIDLVRSCKESILLTVIQP

Variants of: B1
Test: abundance fitness (aPCA) (normalised: wild type 0, dead -1); higher = more abundant; growth selection in yeast, the domain comes from the species named
Details: Homo sapiens

Variant | abundance fitness
A19S | -0.066 ± 0.026
A19R | -0.83 ± 0.034
A19W | -0.045 ± 0.03
A19G | -0.074 ± 0.021
A19I | 0.021 ± 0.048
A19Y | -0.081 ± 0.043
A19T | -0.005 ± 0.03
A19Q | -0.084 ± 0.033
A19N | -0.286 ± 0.048
A19P | -0.029 ± 0.029
A19L | 0.045 ± 0.024
A19K | -0.594 ± 0.045
A19C | -0.001 ± 0.037
A19M | 0.003 ± 0.033
A19F | -0.016 ± 0.04
A19V | 0.003 ± 0.024
A19E | -0.075 ± 0.028
A19H | -0.03 ± 0.046
T31G | -0.222 ± 0.029
T31P | -0.59 ± 0.036
T31R | -0.034 ± 0.023

Variant | abundance fitness
T31Q | -0.029 ± 0.028
T31N | -0.055 ± 0.029
T31H | -0.016 ± 0.029
T31F | -0.149 ± 0.033
T31S | -0.001 ± 0.023
T31Y | -0.117 ± 0.031
T31M | -0.067 ± 0.032
T31A | -0.045 ± 0.025
T31K | -0.012 ± 0.029
T31V | -0.058 ± 0.025
T31W | -0.196 ± 0.032
T31L | -0.168 ± 0.023
T31I | -0.175 ± 0.03
T31C | -0.108 ± 0.033
T31E | -0.013 ± 0.032
T31D | -0.058 ± 0.036
G33V | -0.328 ± 0.027
G33W | -0.228 ± 0.029
G33H | -0.101 ± 0.045
G33L | -0.104 ± 0.024
G33M | -0.124 ± 0.033

Variant | abundance fitness
G33R | -0.104 ± 0.022
G33I | -0.332 ± 0.055
G33T | -0.157 ± 0.031
G33Q | -0.122 ± 0.034
G33S | -0.088 ± 0.025
G33E | -0.112 ± 0.03
G33D | -0.024 ± 0.039
G33F | -0.116 ± 0.046
G33K | -0.064 ± 0.033
G33A | -0.055 ± 0.025
G33N | -0.089 ± 0.048
G33P | -0.871 ± 0.055
K23Q | -0.039 ± 0.034
K23L | -0.066 ± 0.025
K23C | -0.035 ± 0.035
K23M | -0.01 ± 0.032
K23P | -0.317 ± 0.033
K23A | -0.097 ± 0.026
K23W | -0.076 ± 0.028
K23I | -0.085 ± 0.05
K23D | -0.042 ± 0.039

Variant | abundance fitness
K23H | -0.026 ± 0.043
K23F | -0.066 ± 0.04
K23T | -0.037 ± 0.031
K23V | -0.136 ± 0.026
K23N | 0.015 ± 0.041
G34C | -0.552 ± 0.041
G34T | -0.066 ± 0.03
G34Q | -0.802 ± 0.054
G34D | -0.84 ± 0.061
G34V | -0.962 ± 0.042
G34F | -0.765 ± 0.081
G34N | -1.07 ± 0.13
G34P | -0.92 ± 0.058
G34E | -0.999 ± 0.065
G34Y | -0.867 ± 0.093
G34W | -1.1 ± 0.063
G34S | -0.001 ± 0.025
G34I | -0.957 ± 0.13
G34A | -0.157 ± 0.025
G34H | -0.543 ± 0.077
